Where no end group is shown, it is not given here.

For assay [1], the target named is T1, PSMA Fab.
T1 construct: In the phage ELISA the PSMA Fab was biotinylated and captured on neutravidin coated plates; also called anti-PSMA Fab; 006 PSMA Fab
In words: phage ELISA, clonal phage on biotinylated PSMA Fab captured on neutravidin plate, anti-M13 HRP detection.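 Also: crude clonal phage supernatants added to wells preincubated with PSMA antigen in blocking buffer or with blocking buffer only, giving a competition and a no-competitor control.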
Procedure: (§1) Clonal phage were harvested as crude supernatants and screened via standard ELISAs. […] Prior to the addition of clonal phage. wells were incubated with blocking buffer and PSMA antigen or blocking buffer alone. Without washing or aspirating, clonal phage supernatants were then added to the wells and incubated for a short time. Wells were then washed followed by detection of bound phage using a horse radish conjugated anti-M13 antibody.

Assay [2] concerns the target T1, PSMA Fab. Kind of assay: phage ELISA, clonal phage on captured PSMA Fab pre-incubated with PSMA antigen as competitor, anti-M13 HRP detection. (ELISA stands for enzyme-linked immunosorbent assay.)
Procedure: as §1
Assay [3] addresses T2, PSMA Fab.
T2 construct: In the phage ELISA the PSMA Fab was biotinylated and captured on neutravidin coated plates; also called Anti-PSMA Fab; 006 PSMA Fab
Kind of assay: clonal phage ELISA on biotinylated PSMA Fab captured on neutravidin plates, anti-M13 HRP detection.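 Also: crude clonal phage supernatants tested, before phage were added, wells were pretreated with PSMA antigen in blocking buffer or with blocking buffer only.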
Procedure: as §1

The target in assay [4] is T3, PSMA Fab.
T3 construct: also called Anti-PSMA Fab; 006 PSMA Fab
In words: clonal phage ELISA; biotinylated PSMA Fab on neutravidin plate, blocking buffer alone; anti-M13 HRP detection.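 Also: crude clonal phage supernatants added without washing to wells pretreated with blocking buffer with or without PSMA antigen, short incubation, then washed before detecting bound phage.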
Procedure: as §1

Assay [5] concerns the target T3, PSMA Fab. Kind of assay: clonal phage ELISA; biotinylated PSMA Fab on neutravidin plate, wells first incubated with PSMA antigen as competitor; anti-M13 HRP detection.
Procedure: as §1

FERLCIPEWMCSAF [Phage-3400]: in the assay with PSMA Fab [1], the “Phage binding ELISA signal, Anti-PSMA Fab” value was 1.8. Besides, the “Phage binding ELISA signal, Anti-PSMA Fab in presence of PSMA” value with PSMA Fab [2] was found to be 0.102.

In the case of TEILCVPEWMCIGL [Phage-3392], the “Phage binding ELISA signal, Anti-PSMA Fab” value in the assay with PSMA Fab [1] is 1.8. Besides, the “Phage binding ELISA signal, Anti-PSMA Fab in presence of PSMA” value with PSMA Fab [2] stood at 0.0705.

As for TQALCKPAWMCKGF [Phage-3399], the “Phage binding ELISA signal, Anti-PSMA Fab” value in the assay with PSMA Fab [1] was 1.8. For the same molecule, the “Phage binding ELISA signal, Anti-PSMA Fab in presence of PSMA” value with PSMA Fab [2] worked out at 0.0703.

Turning to EHYACKPEWMCAGF (cysteine pairing not given here; also: fused to pIII of bacteriophage) [Phage-3304], the “Phage binding ELISA signal, Anti-PSMA Fab” value with PSMA Fab [3] was 1.87.

Consider EMFRCTPEWMCAGL (cysteine pairing not given here; also: fused to pIII of bacteriophage) [Phage-3307], for which the “Phage binding ELISA signal, Anti-PSMA Fab” value with PSMA Fab [3] turned out to be 1.87.

On to VERYCVPQWMCDGF [Phage-3403], for which, in the assay with PSMA Fab [1], the “Phage binding ELISA signal, Anti-PSMA Fab” value worked out at 1.8. Moreover, the “Phage binding ELISA signal, Anti-PSMA Fab in presence of PSMA” value with PSMA Fab [2] turned out to be 0.117.

In the case of HDAMCKPAWMCAGF [Phage-3299], in the assay with PSMA Fab [3], the “Phage binding ELISA signal, Anti-PSMA Fab” value is 1.88.

Regarding ITVICKPAWMCEFL [Phage-3394], the “Phage binding ELISA signal, Anti-PSMA Fab” value with PSMA Fab [1] was determined as 1.8. Further, the “Phage binding ELISA signal, Anti-PSMA Fab in presence of PSMA” value with PSMA Fab [2] is 0.0613.

Regarding EIKHCIPEWMCSGF (cysteine pairing not given here; also: fused to pIII of bacteriophage) [Phage-3464], in the assay with PSMA Fab [4], the “Phage binding ELISA signal, Anti-PSMA Fab” value was determined as 1.74. For the same molecule, the “phage binding ELISA signal, Anti-PSMA Fab in the presence of PSMA” value with PSMA Fab [5] was determined as 0.104.

For VESMCKPAWMCIGF [Phage-3300], the “Phage binding ELISA signal, Anti-PSMA Fab” value with PSMA Fab [3] was 1.88.

Take IELMCRPLWMCMGF [Phage-3398]: the “Phage binding ELISA signal, Anti-PSMA Fab” value in the assay with PSMA Fab [1] came out at 1.8. Further, the “Phage binding ELISA signal, Anti-PSMA Fab in presence of PSMA” value with PSMA Fab [2] came out at 0.0966.

Consider QFLVCKPSWMCNGF [Phage-3402], for which, in the assay with PSMA Fab [1], the “Phage binding ELISA signal, Anti-PSMA Fab” value was 1.8. Further, the “Phage binding ELISA signal, Anti-PSMA Fab in presence of PSMA” value with PSMA Fab [2] was found to be 0.0882.

As for EIVKCVPPWMCSGI [Phage-3469], in the assay with PSMA Fab [4], the “Phage binding ELISA signal, Anti-PSMA Fab” value came to 1.73. For the same molecule, the “phage binding ELISA signal, Anti-PSMA Fab in the presence of PSMA” value with PSMA Fab [5] is 0.0727.

As for ASVLCVPAWMCSGF [Phage-3395], in the assay with PSMA Fab [1], the “Phage binding ELISA signal, Anti-PSMA Fab” value came out at 1.8. Also, in the assay with PSMA Fab [2], the “Phage binding ELISA signal, Anti-PSMA Fab in presence of PSMA” value came to 0.0808.

On to AALRCVPTWMCEGF [Phage-3404], for which the “Phage binding ELISA signal, Anti-PSMA Fab” value in the assay with PSMA Fab [1] worked out at 1.79. Also, the “Phage binding ELISA signal, Anti-PSMA Fab in presence of PSMA” value with PSMA Fab [2] was found to be 0.0793.

Consider EVLLCKPEWMCTGF (cysteine pairing not given here; also: fused to pIII of bacteriophage) [Phage-3463], for which the “Phage binding ELISA signal, Anti-PSMA Fab” value with PSMA Fab [4] was determined as 1.74. Besides, the “phage binding ELISA signal, Anti-PSMA Fab in the presence of PSMA” value with PSMA Fab [5] was 0.0669.

With LEAACRPMWMCLGF (cysteine pairing not given here; also: fused to pIII of bacteriophage) [Phage-3466], in the assay with PSMA Fab [4], the “Phage binding ELISA signal, Anti-PSMA Fab” value stood at 1.73. Also, the “phage binding ELISA signal, Anti-PSMA Fab in the presence of PSMA” value with PSMA Fab [5] was 0.0664.

Take VDRFCEPIWMCIGF [Phage-3306]: the “Phage binding ELISA signal, Anti-PSMA Fab” value with PSMA Fab [3] is 1.87.

For MPPVCIPRWMCEGF [Phage-3301], the “Phage binding ELISA signal, Anti-PSMA Fab” value with PSMA Fab [3] was found to be 1.88.

As to SVPSCVPPWMCIGF [Phage-3471], the “Phage binding ELISA signal, Anti-PSMA Fab” value with PSMA Fab [4] came out at 1.73. The “phage binding ELISA signal, Anti-PSMA Fab in the presence of PSMA” value in the assay with PSMA Fab [5] was determined as 0.0613.

TNPMCVPEWMCYGF [Phage-3468]: the “Phage binding ELISA signal, Anti-PSMA Fab” value in the assay with PSMA Fab [4] is 1.73. Besides, in the assay with PSMA Fab [5], the “phage binding ELISA signal, Anti-PSMA Fab in the presence of PSMA” value was 0.0628.

For VDQVCIPDWMCNGF [Phage-3470], the “Phage binding ELISA signal, Anti-PSMA Fab” value with PSMA Fab [4] was found to be 1.73. In the assay with PSMA Fab [5], the “phage binding ELISA signal, Anti-PSMA Fab in the presence of PSMA” value came to 0.0771.

As to GFPWCEPQWMCIGF [Phage-3396], in the assay with PSMA Fab [1], the “Phage binding ELISA signal, Anti-PSMA Fab” value worked out at 1.8. For the same molecule, in the assay with PSMA Fab [2], the “Phage binding ELISA signal, Anti-PSMA Fab in presence of PSMA” value was found to be 0.114.

Take MLLQCKPSWMCAGF [Phage-3302]: the “Phage binding ELISA signal, Anti-PSMA Fab” value with PSMA Fab [3] turned out to be 1.87.

As to ENHYCRPAWMCNGF [Phage-3393], in the assay with PSMA Fab [1], the “Phage binding ELISA signal, Anti-PSMA Fab” value turned out to be 1.8. Also, the “Phage binding ELISA signal, Anti-PSMA Fab in presence of PSMA” value with PSMA Fab [2] was 0.106.

For FRDYCVPPWMCVGM [Phage-3401], the “Phage binding ELISA signal, Anti-PSMA Fab” value with PSMA Fab [1] is 1.8. For the same molecule, in the assay with PSMA Fab [2], the “Phage binding ELISA signal, Anti-PSMA Fab in presence of PSMA” value turned out to be 0.0791.

WEARCQPTWMCTGF (cysteine pairing not given here; also: fused to pIII of bacteriophage) [Phage-3467]: in the assay with PSMA Fab [4], the “Phage binding ELISA signal, Anti-PSMA Fab” value was determined as 1.73. In addition, in the assay with PSMA Fab [5], the “phage binding ELISA signal, Anti-PSMA Fab in the presence of PSMA” value came to 0.0667.

Regarding HSALCIPSWMCQGF [Phage-3305], in the assay with PSMA Fab [3], the “Phage binding ELISA signal, Anti-PSMA Fab” value is 1.87.

With ETHFCKPKWMCVGF (cysteine pairing not given here; also: fused to pIII of bacteriophage) [Phage-3465], the “Phage binding ELISA signal, Anti-PSMA Fab” value with PSMA Fab [4] was 1.74. Besides, the “phage binding ELISA signal, Anti-PSMA Fab in the presence of PSMA” value in the assay with PSMA Fab [5] was determined as 0.0927.

On to FGIYCVPEWMCTGL [Phage-3397], for which, in the assay with PSMA Fab [1], the “Phage binding ELISA signal, Anti-PSMA Fab” value was 1.8. Besides, the “Phage binding ELISA signal, Anti-PSMA Fab in presence of PSMA” value with PSMA Fab [2] amounted to 0.0891.

In the case of GWPVCVPPWMCDGF [Phage-3303], the “Phage binding ELISA signal, Anti-PSMA Fab” value with PSMA Fab [3] is 1.87.

For the molecule ETFKCVPEWMCTGL [Phage-3298], the “Phage binding ELISA signal, Anti-PSMA Fab” value with PSMA Fab [3] turned out to be 1.88.

The values are drawn from patent publication US20260242478A1 (published 2026).
